Measurements reported in patent publication US20110166331A1 (Amgen, published 2011).
Residue numbers refer to the chain shown, from its start.

How the values were obtained:
[1] = target: T1, cynomolgus IL-17RA on the cell surface (cynomolgus); assay: FACS competition, non-clonal hybridoma supernatant vs biotin-huIL-17A (500 ng/ml) on cyno IL-17RA+ CHO cells; lower = more inhibition
T1 construct: whole, on cells; also called CHO-cynoIL-17RA; cyno IL-17RA+ CHO cells
Description: The anti-IL-17RA antibodies were characterized. Non-clonal hybridoma supernatants were prepared in volumes of 1-2 mls (the Ig concentrations were not determined for these supernatants).

[2] = target: T1, cynomolgus IL-17RA on the cell surface; assay: FACS competition, non-clonal hybridoma supernatant vs biotin-huIL-17A (500 ng/ml) on cyno IL-17RA+ cells; lower = more inhibition
[3] = target: T1, cynomolgus IL-17RA on the cell surface; assay: FACS competition, non-clonal hybridoma supernatant vs biotin-huIL-17A (500 ng/ml) on cynomolgus IL-17RA+ CHO cells; lower = more inhibition
Description: Non-clonal hybridoma supernatants were prepared in volumes of 1-2 mls (the Ig concentrations were not determined for these supernatants). […] Anti-IL-17RA non-clonal hybridomas were selected for sub-cloning based on their performance in the CHO-IL-17RA FACS assay and HFF bioassay.

[4] = target: T1, cynomolgus IL-17RA on the cell surface; assay: cell-based or functional assay
D152R IL-17RA mutant = target: T2, D152R IL-17RA mutant (human, UniProt Q96F46 33-320); assay: Bio-Plex titration on His-captured D152R IL-17RA mutant; signal as percent of maximum wild-type MFI
T2 construct: Arginine scan mutant of huIL-17RA-FLAG-polyHis; also called huIL-17RA-FLAG-polyHis D152R
T2 sequence (Q96F46 other isoform, or with tags, fused parts or gaps D152R D152R limits assumed): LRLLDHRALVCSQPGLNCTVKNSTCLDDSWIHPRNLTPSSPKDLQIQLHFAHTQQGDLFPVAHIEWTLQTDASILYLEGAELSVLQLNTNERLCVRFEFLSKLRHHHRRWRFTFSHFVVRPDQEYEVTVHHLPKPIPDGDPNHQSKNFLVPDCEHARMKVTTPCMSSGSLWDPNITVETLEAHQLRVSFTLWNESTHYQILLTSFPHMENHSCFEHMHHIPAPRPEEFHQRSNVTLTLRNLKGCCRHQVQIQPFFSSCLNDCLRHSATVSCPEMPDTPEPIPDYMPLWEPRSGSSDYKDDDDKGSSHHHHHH
Description: Twelve bead codes of pentaHis-coated beads (Qiagen, Valencia, Calif.; see www1.qiagen.com) were used to capture histidine-tagged protein.
To prepare the beads, 100 ul of wild-type IL-17RA and IL-17RA arginine mutant supernatants from transient expression culture were bound to penta-His-coated beads overnight at 4° C. or 2 hours at room temperature with vigorous shaking. The beads were washed as per the manufacturer's protocol and the 12 bead set was pooled and aliquoted into 2 or 3 columns of a 96-well filter plate (Millipore, Bellerica, Mass., product #MSBVN1250) for duplicate or triplicate assay points, respectively. 100 ul anti-IL-17RA antibodies in 4-fold dilutions were added to the wells, incubated for 1 hour at room temperature, and washed. […] Beads were resuspended in 1% BSA, shaken for 3 minutes, and read on the Bio-Plex workstation. Antibody binding to IL-17RA arginine mutant protein was compared to antibody binding to the human IL-17RA wild-type from the same pool. A titration of antibody over approximately a 5 log scale was performed. Median Fluorescence Intensity (MFI) of IL-17RA arginine mutant proteins was graphed as a percent of maximum wild-type human IL-17RA signal.

B1: AMH21/AML21 (antibody, IgG2, V domains shown)
VH: EVQLVESGGGSVQPGGSLRLSCAASGFTFSSYSMNWVRQAPGKGLEWVSIISSRSSIIHYADSVKGRFTISRDNAKNSLYLQMNSLRDEDTAVYYCARPKVGGGMDVWGQGTTVTVSS
VL: DIQMTQSPSSLSASVGDRVTITCRASQGISNYLAWYQQKPGKFPELLIYAASTLQSGVPSRFSGSGSGTDFTLTISSLQPEDVATYYCQKYNRAPFTFGPGTKVDIK
notes: also called AM-21
- MFI [1]: 6

B2: AMH22/AML22 (antibody, IgG2, V domains shown)
VH: QVQLVQSGAEVKKPGASVKVSCKASGYTFTRYGISWVRQAPGQGLEWMGWISAYSGNTNYAQKLQGRVTMTTDTSTSTAYMELRSLRSDDTAVYYCARRQLYFDYWGQGTLVTVSS
VL: EIVMTQSPATLSVSPGERVTLSCRASQSVSSNLAWFQQKPGQAPRPLIYDASTRAAGIPARFSGSGSGTDFTLTISSLQSEDFAVYYCQQYDNWPLTFGGGTKVEIK
notes: also called AM-22
- MFI [2]: 18

B3: AMH15/AML15 (antibody, IgG2, V domains shown)
VH: QVQLVESGGGVVQPGRSLRLSCAASGFTFSSYGMQWVRQAPGKGLEWVAVIWYDGNKKYYADSVKGRFTISRDNSKNTLYLQMNSLRAEDTAVYYCARGRVRDYYYGMDVWGQGTTVTVSS
VL: B2 VL
notes: IgG2 XenoMouse; also called AM-15
- MFI [1]: 6

B4: AMH17/AML17 (antibody, V domains shown)
VH: B2 VH with S17A, S25T, F29L, R31S, N59K, R99K, Y102V
VL: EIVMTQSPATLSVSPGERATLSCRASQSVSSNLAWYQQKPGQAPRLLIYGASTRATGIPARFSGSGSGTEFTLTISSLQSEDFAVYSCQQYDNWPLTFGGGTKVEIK
notes: also called AM-17
- MFI [3]: 8

B5: AMH14/AML14 (antibody, IgG2, V domains shown)
VH: B2 VH with A53T
VL: B2 VL with V19A, A56T, I58V
notes: Fully human mAb from IgG2 XenoMouse mice; also called AM-14
- MFI [1]: 10
- IC50, cynomolgous IL-17A-induced IL-6 production from JTC-12 cells [4]: ~1.2 nM

B6: AMH12/AML12 (antibody, IgG2, V domains shown)
VH: B2 VH with F29L, R31S, A53T, S55K, R99K, Y102V
VL: B2 VL with V19A, V29I, N32S, F36Y, P46L, D50G, A56T, D70E, D82N
notes: also called AM-12
- MFI [3]: 6

B7: AMH16/AML16 (antibody, IgG2, V domains shown)
VH: B2 VH with R31S, S55N, N59K, A79V, R99K, Y102V
VL: EIVMTQSPATLSVSPGERATLSCRASQSISTSLAWYQQKPGQAPRLLIYGTSTRATGIPARFSGSGSGTEFTLTISSLQSEDFAVYFCQQYDIWPLTFGGGTKVEIK
notes: also called AM-16
- MFI [3]: 6

B8: AMH11/AML11 (antibody, IgG2, V domains shown)
VH: QVQLVESGGGVVQPGRSLRLSCATSGITFSSYGMHWVRQAPGKGLEWVAVIWYDGSNKYYADSVKGRFTISRDNSKNTLYLQMNSLRAEDTAVYYCARDTKDYWGQGTLVTVSS
VL: EIVMTQSPATLSVSPGERATLSCRASQSVSSNLAWYQQKPGQAPRLLIYGASTRAAGIPARFSGGGSGTAFTLTISNLQSEDFAVYYCQHYINWPKWTFGQGTKVDIK
notes: also called AM-11
- MFI [2]: 9

B9: AMH5/AML5 (antibody, IgG2, V domains shown)
VH: QVQLQESGPGLVKPSETLPLTCTVSGGSIRSYYWSWIRQPAGKGLEWIGRIYRSGNTIYNPSLKSRVTMSIDTSKNQFSLTLSSVTAADTAVYYCARENYSESSGLYYYYGMDVWGQGTTVTVSS
VL: DIQMTQSPSSLSASVGDRVTITCRASQGIRNDLGWYQQKPGKAPKRLIYAASSFQSGVPSRFSGSGSGTGFTLTISSLQPEDFATYYCLQHNSYPPTFGQGTKVEIK
notes: IgG2 XenoMouse; also called AM-5
- MFI [2]: 9

B10: AMH1/AML1 (antibody, V domains shown)
VH: QVQLQESGPGLVKPSETLSLTCTVSGGSISNYYWNWIRQSPGKGLEWIGDIYYSGSTNYNPSLKSRVTISVDTSKNQFSLKLSSVTTADTAVYYCARDGELANYYGSGSYQFYYYYGMDVWGQGTTVTVSS
VL: B9 VL with Q3L, F54L, G70E, Y94N, P96F, Q100P, E105D
notes: also called AM-1
- MFI [2]: 11

B11: AMH13/AML13 (antibody, IgG2, V domains shown)
VH: B3 VH
VL: DIVMTQTPLSLSVTPGQPASIACKSSQSLLHSDGKTYLYWYLQKPGQPPQLLIYEVSTRFSGVPDRFSGSGSGTDFTLKISRVEAEDVGVFYCMQSIQLPLTFGGGTKVEIK
notes: also called AM-13
- MFI [3]: 6

B12: AMH18/AML18 (antibody, IgG2, V domains shown)
VH: QVQLVQSGAEVKKPGASVKVSCKASGYSFTDYYMHWVRQAPGQGLEWMGWMHPNSGGTDLAQRFQGRVTMTRDTSISTAYMELSRLRSDDTAVYYCARGGYCSTLSCSFYWYFDLWGRGTLVTVSS
VL: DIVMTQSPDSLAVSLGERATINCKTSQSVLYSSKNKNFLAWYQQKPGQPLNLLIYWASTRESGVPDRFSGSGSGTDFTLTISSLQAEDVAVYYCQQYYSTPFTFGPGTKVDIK
notes: also called AM-18
- EC50 (read off the curve) (D152R IL-17RA mutant): ~0.08 nM
